From patent US20180094062A1 (Hoffmann-La Roche, published 2018)

T1: human recombinant HER4 Extracellular Domain (HER4 ECD) (human, UniProt Q15303 26-651)
T1 sequence: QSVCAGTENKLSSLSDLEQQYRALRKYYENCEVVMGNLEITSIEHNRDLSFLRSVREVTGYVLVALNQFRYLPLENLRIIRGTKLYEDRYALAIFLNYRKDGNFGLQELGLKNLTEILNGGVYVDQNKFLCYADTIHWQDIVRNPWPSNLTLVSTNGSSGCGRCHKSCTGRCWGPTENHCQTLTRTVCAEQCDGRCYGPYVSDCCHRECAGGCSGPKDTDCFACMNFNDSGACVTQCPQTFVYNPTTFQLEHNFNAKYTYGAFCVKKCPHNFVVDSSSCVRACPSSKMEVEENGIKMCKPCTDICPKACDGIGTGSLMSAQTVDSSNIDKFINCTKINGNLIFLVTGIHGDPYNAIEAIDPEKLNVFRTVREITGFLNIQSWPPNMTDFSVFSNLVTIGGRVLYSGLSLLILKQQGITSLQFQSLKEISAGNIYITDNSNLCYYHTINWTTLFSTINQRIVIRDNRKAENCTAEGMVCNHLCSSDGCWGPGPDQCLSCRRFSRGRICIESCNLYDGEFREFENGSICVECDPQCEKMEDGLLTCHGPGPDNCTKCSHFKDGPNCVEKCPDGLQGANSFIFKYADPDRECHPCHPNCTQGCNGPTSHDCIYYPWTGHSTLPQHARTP

T2: TtSlyDcas
T2 construct: negative control scaffold without the HER3 β-hairpin
T2 chain: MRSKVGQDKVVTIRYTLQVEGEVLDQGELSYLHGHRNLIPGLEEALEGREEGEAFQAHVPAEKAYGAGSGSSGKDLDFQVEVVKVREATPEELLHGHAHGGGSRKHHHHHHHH

T3: TgSlyDΔIF
T3 construct: negative control scaffold without insert (Thermococcus gammatolerans SlyD); also called TgSlyDAIF
T3 chain: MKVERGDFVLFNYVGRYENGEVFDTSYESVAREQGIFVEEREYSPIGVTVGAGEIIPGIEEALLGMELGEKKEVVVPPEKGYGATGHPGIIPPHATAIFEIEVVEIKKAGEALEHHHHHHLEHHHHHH

T4: TtSlyDcas-Her3
T4 chain: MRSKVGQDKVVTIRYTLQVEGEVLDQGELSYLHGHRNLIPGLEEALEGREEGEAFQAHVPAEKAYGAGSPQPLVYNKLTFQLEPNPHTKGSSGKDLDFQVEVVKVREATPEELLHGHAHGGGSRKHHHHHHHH

T5: TtSlyDcys-Her3
T5 chain: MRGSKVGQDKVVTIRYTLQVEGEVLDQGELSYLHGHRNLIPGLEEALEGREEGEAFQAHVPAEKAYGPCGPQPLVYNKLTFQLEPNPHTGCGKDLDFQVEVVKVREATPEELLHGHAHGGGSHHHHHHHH

T6: TgSlyDser-Her3
T6 chain: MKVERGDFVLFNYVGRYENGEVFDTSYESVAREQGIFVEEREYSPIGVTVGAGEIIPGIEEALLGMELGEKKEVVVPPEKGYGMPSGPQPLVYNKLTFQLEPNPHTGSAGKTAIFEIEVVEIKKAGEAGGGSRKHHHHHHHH

T7: TgSlyDcys-Her3
T7 chain: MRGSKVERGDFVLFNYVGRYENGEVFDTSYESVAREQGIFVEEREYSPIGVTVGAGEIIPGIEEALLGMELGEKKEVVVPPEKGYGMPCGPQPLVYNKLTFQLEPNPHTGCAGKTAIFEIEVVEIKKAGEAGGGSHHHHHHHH

T8: HER1 (EGFR) ECD peptide hairpin, overlapping immobilized 15-mer peptides (human, UniProt P00533 265-283, limits assumed)
T8 construct: domain: peptide hairpin (β-hairpin); CelluSpots 15-mer library; cysteines replaced by serines; also called hairpin motive in EGFR
T8 peptide (looked up): PPLMLYNPTTYQMDVNPEG

T9: HER2 ECD peptide hairpin, overlapping immobilized 15-mer peptides (human, UniProt P04626 269-287, limits assumed)
T9 construct: domain: peptide hairpin (β-hairpin); CelluSpots 15-mer library; cysteines replaced by serines; also called hairpin motive in the HER2 ECD
T9 peptide (looked up): PALVTYNTDTFESMPNPEG


Experiments:
[1] = target: T10, human recombinant HER3 Extracellular Domain (HER3 ECD) (human, UniProt P21860 20-643); test: ELISA, antigen coated, hybridoma supernatant
T10 construct: 68 kDa; also called human-Her3-ECD
Procedure: (§1) For the ELISA screening an antigen down format was used. […] Hybridoma Supernatant was added to the plates and incubated for 1 h at room temperature. Bound antibody was detected with a HRP-labeled F(ab′)₂ goat anti-mouse Fcγ (Dianova) and ABTS (Roche) was used as a HRP-substrate.
(§2) As negative controls the scaffold proteins TtSlyDcas and TgSlyDΔIF were used.

[2] = target: T11, human HER1 Extracellular Domain (HER1 ECD) (human, UniProt P00533 25-645); test: ELISA, antigen coated, hybridoma supernatant
T11 construct: also called EGFR ECD
Procedure: as §1, §2

[3] = target: human HER2 Extracellular Domain (HER2 ECD) (human, UniProt P04626 23-652); test: ELISA, antigen coated, hybridoma supernatant
Procedure: as §1, §2

[4] = target: T1, human recombinant HER4 Extracellular …; test: ELISA, antigen coated, hybridoma supernatant
Procedure: as §1, §2

TtSlyDcas = target: T2, TtSlyDcas; test: ELISA, antigen coated, hybridoma supernatant
Procedure: as §1, §2

TgSlyDΔIF = target: T3, TgSlyDΔIF; test: ELISA, antigen coated, hybridoma supernatant
Procedure: as §1, §2

TtSlyDcas-Her3 = target: T4, TtSlyDcas-Her3; test: ELISA, antigen coated, hybridoma supernatant
Procedure: as §1, §2

TtSlyDcys-Her3 = target: T5, TtSlyDcys-Her3; test: ELISA, antigen coated, hybridoma supernatant
Procedure: as §1, §2

TgSlyDser-Her3 = target: T6, TgSlyDser-Her3; test: ELISA, antigen coated, hybridoma supernatant
Procedure: as §1, §2

TgSlyDcys-Her3 = target: T7, TgSlyDcys-Her3; test: ELISA, antigen coated, hybridoma supernatant
Procedure: as §1, §2

[5] = target: T12, HER1, full length, on transfected HEK293 cells (human, UniProt P00533 25-1210); test: IHC on HEK293 cells transiently transfected with full length HER1
T12 construct: HEK293 transiently transfected with a plasmid coding for full length HER1; also called EGFR
Procedure: (§3) All selected clones were tested for reactivity and specificity in IHC. […] After an additional fixation in formalin overnight the Agarose blocks were embedded in paraffin. Untransfected HEK293 cells were used as negative controls and treated accordingly to the transfected cells. After paraffin embedding 3 μm thin sections were prepared using a microtome. The sections were mounted on glass microscopy slides and dried for 2 h. All further steps of the immunohistochemical staining procedure were carried out using a Ventana Benchmark XT. The slides were dewaxed and antigen retrieval was performed by applying heat for 1 hour. For antigen retrieval the Ventana buffer CC1 was used. The antibodies were used at a concentration of 1 μg/ml. For the detection of bound antibody the Ventana UltraView detection kit was used.

[6] = target: T13, HER2, full length, on cells (transfected HEK293, MCF7) (human, UniProt P04626 23-1255); test: IHC on HEK293 cells transiently transfected with full length HER2
Procedure: as §3

[7] = target: T14, HER4, full length, on transfected HEK293 cells (human, UniProt Q15303 26-1308); test: IHC on HEK293 cells transiently transfected with full length HER4
Procedure: as §3

[8] = target: T12, HER1, full length, on transfected …; test: IHC on fixed transfected HEK293 cells
Procedure: as §3

[9] = target: T13, HER2, full length, on cells …; test: IHC on fixed transfected HEK293 cells
Procedure: as §3

[10] = target: T14, HER4, full length, on transfected …; test: IHC on fixed transfected HEK293 cells
Procedure: as §3

[11] = target: T8, HER1 (EGFR) ECD peptide hairpin, …; test: CelluSpots array of overlapping 15-mer peptides
[12] = target: T9, HER2 ECD peptide hairpin, overlapping …; test: CelluSpots array of overlapping 15-mer peptides
[13] = target: T15, HER3 ECD-HRG complex (Heregulin-activated Her-3 ECD) (human, UniProt P21860 20-643); test: SPR, 90 nM Heregulin*Her-3 ECD complex on captured antibody
T15 construct: receptor-ligand complex made by preincubating HER3 ECD with a five-fold molar excess of Heregulin; also called Heregulin/Her-3 ECD; Heregulin-complexed Her-3 ECD

SBP-tagged HER3-ECD = target: T16, SBP-tagged HER3-ECD (human, UniProt P21860 20-643); test: time-resolved fluorescence, 10 nM Eu-labelled Heregulin-beta on plate-bound SBP-tagged HER3-ECD
T16 construct: not shown: SBP tag
Procedure: On the next day the wells were washed three times with washing buffer (PBS+0.05% Tween-20) and blocked with PBS containing 1% BSA for one hour. After another three washes with washing buffer, 40 μl antibody solution (in Delfia Binding Buffer) was added to each well as a 2× stock of the desired final concentrations (10⁻³ to 10³ nM, alternatively 10⁻⁴ to 10² nM). Immediately […] of 20 nM Europium-labeled Heregulin-beta (PeproTech, Cat. #100-03) was added to achieve a final concentration of 10 nM. The plates were incubated on a shaker at room temperature for two hours. Following three washes with Delfia Wash Buffer, Delfia Enhancement Solution was added and incubated on a shaker for 15 minutes (light protected). Finally, the plates were measured in a Tecan Infinite F200 reader using a time-resolved fluorescence measurement protocol.

[14] = target: T10, human recombinant HER3 Extracellular …; test: SPR Biacore T200, antibody captured, HER3-ECD as analyte, 37 C

OD 405 nm [1] [OD] | OD 405 nm [2] [OD] | binding result [2] | OD 405 nm [3] [OD] | binding result [3] | OD 405 nm [4] [OD] | binding result [4] | OD 405 nm (TtSlyDcas) [OD] | OD 405 nm (TgSlyDΔIF) [OD] | OD 405 nm (TtSlyDcas-Her3) [OD] | OD 405 nm (TtSlyDcys-Her3) [OD] | OD 405 nm (TgSlyDser-Her3) [OD] | OD 405 nm (TgSlyDcys-Her3) [OD] | Binder | also measured
3.1 | 0.025 | no binding | 0.03 | no binding | 0.03 | no binding | 0.022 | 0.021 | 1.4 | 1.53 | 1.4 | 1.62 | anti-HER3 antibody M-17-07 (antibody, V domains shown, mouse hybridoma clone) VH: EVQLQQSGTVLARPGASVKMSCKASGYSFTSYWIHWVKQRPGQGLEWIGAIYPGNSDTTYNQKFKGKAKLTAVTSASTAYMELSSLTNEDSAVYYCARTGVWTSYYFDYWGQGTTLTVSS VL: DIQMTQSPASLSASVGETVTITCRASENIYSNLAWYQQKQGKSPQLLVYAATNLADGVPSRFSGSGSGTQFSLRINSLQPEDFGSYYCQHFYGTPFTFGTGTKLEIK | binding result [5]: no binding; binding result [6]: no binding; binding result [7]: no binding
3.06 | 0.022 | no binding | 0.023 | no binding | 0.051 | no binding | 0.022 | 0.022 | 1.31 | 1.53 | 1.66 | 1.37 | anti-HER3 antibody M-17-12 (antibody, V domains shown, mouse hybridoma clone; VH and VL stated identical to those of M-17-02) VH: EVQLQQSGTVLARPGASVKMSCKASGYSFTSYWIHWVKQRPGQGLEWIGAIYPGNSDTTYNQKFKGKAKLTAVTSASTAYMELSSLTNEDSAVYYCARTGVWTSYYFDYWGQGTTLTVSS VL: DIQMTQSPASLSASVGETVTITCRASENIYSNLAWYQQKQGKSPQLLVYAATNLADGVPSRFSGSGSGTQFSLRINSLQPEDFGSYYCQHFYGTPFTFGTGTKLEIK | binding result [8]: no binding (tested: 1 µg/ml); binding result [9]: no binding (tested: 1 µg/ml); binding result [10]: no binding (tested: 1 µg/ml)
– | – | – | – | – | – | – | – | – | – | – | – | – | anti-HER3/HER4 antibody M-05-74 (antibody, V domains shown, also called M-074; M-5-74) VH: QVQLQQSGAELAKPGASVKMSCKTSGYTLTDYWIHWVKQRPGQGLEWIGYINPYTGYTESNQKFKDKATLTADKSSNTAYIQLSSLTSEDSAVYYCARPYYYGDYWGQGTTLTVSS VL: QIVLTQSPAIMSASPGERVTITCSASSSVSYMHWFQQKPGTSPKLLIYSTSNLASGVPARFSGSGSGTSYSLTISRMEAEDAATYYCQQRSSYPFTFGSGTKLEIK | binding result [11]: no binding (tested: 1 µg/mL); binding result [12]: no binding (tested: 1 µg/mL); t½ diss [13]: 18 min
– | – | – | – | – | – | – | – | – | – | – | – | – | Europium-labeled Heregulin-beta (PeproTech, Cat. #100-03) (ligand, also: europium label, position not given here, bought fragment; also called HRG; Human Heregulin β-1 fragment (as provided from Preprotech)) SHLVKCAEKEKTFCVNGGECFMVKDLSNPSRYLCKCPNEFTGDRCQNYVMASFYKHLGIEFMEAE | binding result (SBP-tagged HER3-ECD): binds
– | – | – | – | – | – | – | – | – | – | – | – | – | anti-HER3 antibody MOR09823 (described in WO2012/22814) (antibody, V domains shown) VH: QVQLVESGGGLVQPGGSLRLSCAASGFTFSSYAMSWVRQAPGKGLEWVSVTGAVGRTYYPDSVKGRFTISRDNSKNTLYLQMNSLRAEDTAVYYCARWGDEGFDIWGQGTLVTVSS VL: DIQMTQSPSSLSASVGDRVTITCRASQGISNWLAWYQQKPGKAPKLLIYGASSLQSGVPSRFSGSGSGTDFTLTISSLQPEDFAVYYCQQYSSFPTTFGQGTKVEIKR | Kd [14]: 0.3 nM
